Laboratory results reported in article PMC4022466, “Spermatid Cyst Polarization in Drosophila Depends upon apkc and the CPEB Family Translational Regulator orb2”.

Target: T1, Orb2-RRM (GST-Orb2 C-terminus) (UniProt Q9VSR3 447-704)
T1 sequence: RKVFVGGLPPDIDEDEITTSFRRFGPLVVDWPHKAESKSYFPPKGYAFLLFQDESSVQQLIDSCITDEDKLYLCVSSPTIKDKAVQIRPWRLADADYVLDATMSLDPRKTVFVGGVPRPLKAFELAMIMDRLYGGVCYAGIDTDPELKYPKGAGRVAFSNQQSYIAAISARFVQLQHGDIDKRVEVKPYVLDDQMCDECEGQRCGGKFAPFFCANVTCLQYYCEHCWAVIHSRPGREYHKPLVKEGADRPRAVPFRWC
Assay: competition; 100-400 fold excess cold against RA-GS probe; 25 mM Tris pH 7.5, 10 mM EDTA (rest of buffer and temperature not in the material)
Conditions: protein: recombinant; tags: GST

ACUUUUGUUUUUAAUGCAUUCCAC (ssRNA) [Comp-CPE (competitor A)]
binding result: binds
